In article PMC7089075:

Legend:
[1] = target: Salmo salar Mov10 (SsMov10) (Salmo salar); assay: two-hybrid
[2] = target: N (two-hybrid positive control, pAS2 N and pGADT7 N); assay: two-hybrid

Row | Substance | fold β-galactosidase activity against the controls [1] [fold] | liquid beta gal assay value [2]
1 | infectious salmon anaemia virus (ISAV) segment 8 open reading frame 2 protein (s8ORF2) (natural protein) | 5 | –
2 | N (two-hybrid positive control, pAS2 N and pGADT7 N) (natural protein) | – | 1.28
